Assay results reported in patent US20160368965A1 (IMMATICS BIOTECHNOLOGIES, published 2016).

B1: VLGVIWGV (SEQ ID NO: 70) (peptide)
peptide: VLGVIWGV
B2: VLFDVTGQV (SEQ ID NO: 68) (peptide)
peptide: VLFDVTGQV
B3: VVYEGQLISI (SEQ ID NO: 79) (peptide)
peptide: VVYEGQLISI
B4: LLSDPIPEV (SEQ ID NO: 52) (peptide)
peptide: LLSDPIPEV
B5: VLFSGSLRL (SEQ ID NO: 69) (peptide)
peptide: VLFSGSLRL
B6: VIWGTDVNV (SEQ ID NO: 67) (peptide)
peptide: VIWGTDVNV
B7: KLDSSGGAVQL (SEQ ID NO: 23) (peptide)
peptide: KLDSSGGAVQL
B8: LLPGTEYVVSV (SEQ ID NO: 80) (peptide)
peptide: LLPGTEYVVSV
B9: VLDEFYSSL (SEQ ID NO: 28) (peptide)
peptide: VLDEFYSSL
B10: ALYTGSALDFV (SEQ ID NO: 8) (peptide)
peptide: ALYTGSALDFV
B11: FLEDDDIAAV (SEQ ID NO: 34) (peptide)
peptide: FLEDDDIAAV
B12: ALDPAAQAFLL (SEQ ID NO: 4) (peptide)
peptide: ALDPAAQAFLL
B13: LLGPAGARA (SEQ ID NO: 51) (peptide)
peptide: LLGPAGARA
B14: SLYTALTEA (SEQ ID NO: 26) (peptide)
peptide: SLYTALTEA
B15: GLVDGRDLVIV (SEQ ID NO: 21) (peptide)
peptide: GLVDGRDLVIV
B16: SLQDTEEKSRS (SEQ ID NO: 78) (peptide)
peptide: SLQDTEEKSRS
B17: SVTGIIVGV (SEQ ID NO: 63) (peptide)
peptide: SVTGIIVGV
B18: ALTGIPLPLI (SEQ ID NO: 6) (peptide)
peptide: ALTGIPLPLI
B19: ILYSDDGQKWTV (SEQ ID NO: 45) (peptide)
peptide: ILYSDDGQKWTV
B20: FILPIGATV (SEQ ID NO: 84) (peptide)
peptide: FILPIGATV
B21: LIYKDLVSV (SEQ ID NO: 47) (peptide)
peptide: LIYKDLVSV
B22: YIDKDLEYV (SEQ ID NO: 74) (peptide)
peptide: YIDKDLEYV
B23: GLAPQIHDL (SEQ ID NO: 40) (peptide)
peptide: GLAPQIHDL
B24: SMYDGLLQA (SEQ ID NO: 61) (peptide)
peptide: SMYDGLLQA
B25: SLSESFFMV (SEQ ID NO: 59) (peptide)
peptide: SLSESFFMV
B26: YILPFSEVL (SEQ ID NO: 29) (peptide)
peptide: YILPFSEVL
B27: FLTPSIFII (SEQ ID NO: 39) (peptide)
peptide: FLTPSIFII
B28: FLFPSQYVDV (SEQ ID NO: 35) (peptide)
peptide: FLFPSQYVDV
B29: ILSDMRSQYEV (SEQ ID NO: 42) (peptide)
peptide: ILSDMRSQYEV
B30: ILSTEIFGV (SEQ ID NO: 22) (peptide)
peptide: ILSTEIFGV
B31: ALVDIVRSL (SEQ ID NO: 7) (peptide)
peptide: ALVDIVRSL
B32: ALIAEGIAL (SEQ ID NO: 82) (peptide)
peptide: ALIAEGIAL
B33: ILAQVGFSV (SEQ ID NO: 44) (peptide)
peptide: ILAQVGFSV
B34: LTQPGPIASA (SEQ ID NO: 54) (peptide)
peptide: LTQPGPIASA
B35: YLDSMYIML (SEQ ID NO: 31) (peptide)
peptide: YLDSMYIML
B36: LLDENGVLKL (SEQ ID NO: 48) (peptide)
peptide: LLDENGVLKL
B37: RQYPWGVVQV (SEQ ID NO: 58) (peptide)
peptide: RQYPWGVVQV
B38: ILIGETIKI (SEQ ID NO: 3) (peptide)
peptide: ILIGETIKI
B39: FLNPDEVHAI (SEQ ID NO: 37) (peptide)
peptide: FLNPDEVHAI
B40: NLAPAPLNA (SEQ ID NO: 55) (peptide)
peptide: NLAPAPLNA
B41: VVYDDSTGLIRL (SEQ ID NO: 81) (peptide)
peptide: VVYDDSTGLIRL
B42: FLSDGTIISV (SEQ ID NO: 85) (peptide)
peptide: FLSDGTIISV
B43: LLWDPSTGKQV (SEQ ID NO: 53) (peptide)
peptide: LLWDPSTGKQV
B44: YVDDGLISL (SEQ ID NO: 32) (peptide)
peptide: YVDDGLISL
B45: LINPNIATV (SEQ ID NO: 25) (peptide)
peptide: LINPNIATV
B46: TLNEKLTAL (SEQ ID NO: 65) (peptide)
peptide: TLNEKLTAL
B47: TLLAHPVTL (SEQ ID NO: 27) (peptide)
peptide: TLLAHPVTL
B48: SVFPGARLL (SEQ ID NO: 62) (peptide)
peptide: SVFPGARLL
B49: FLTEAALGDA (SEQ ID NO: 38) (peptide)
peptide: FLTEAALGDA
B50: FLGDLSHLL (SEQ ID NO: 36) (peptide)
peptide: FLGDLSHLL
B51: ALLTGIISKA (SEQ ID NO: 5) (peptide)
peptide: ALLTGIISKA
B52: SLWEDYPHV (SEQ ID NO: 60) (peptide)
peptide: SLWEDYPHV
B53: TMVEHNYYV (SEQ ID NO: 46) (peptide)
peptide: TMVEHNYYV
B54: RLFPGSSFL (SEQ ID NO: 77) (peptide)
peptide: RLFPGSSFL
B55: ALSKEIYVI (SEQ ID NO: 83) (peptide)
peptide: ALSKEIYVI
B56: TLFSEPKFAQV (SEQ ID NO: 64) (peptide)
peptide: TLFSEPKFAQV
B57: YIYKDTIQV (SEQ ID NO: 30) (peptide)
peptide: YIYKDTIQV
B58: VMASPGGLSAV (SEQ ID NO: 72) (peptide)
peptide: VMASPGGLSAV
B59: VMVDGKPVNL (SEQ ID NO: 73) (peptide)
peptide: VMVDGKPVNL
B60: GLLAGNEKLTM (SEQ ID NO: 41) (peptide)
peptide: GLLAGNEKLTM
B61: RLSELGITQA (SEQ ID NO: 57) (peptide)
peptide: RLSELGITQA
B62: VLLPEGGITAI (SEQ ID NO: 71) (peptide)
peptide: VLLPEGGITAI
B63: KLSENAGIQSL (SEQ ID NO: 24) (peptide)
peptide: KLSENAGIQSL
B64: LLDGFPRTV (SEQ ID NO: 49) (peptide)
peptide: LLDGFPRTV
B65: NLIGVTAEL (SEQ ID NO: 56) (peptide)
peptide: NLIGVTAEL
B66: LLFGSDGYYV (SEQ ID NO: 50) (peptide)
peptide: LLFGSDGYYV
B67: HLGVKVFSV (SEQ ID NO: 43) (peptide)
peptide: HLGVKVFSV

Molecular target: T1, HLA-A*02:01 (human)
T1 construct: the tested peptide takes its place; also called peptide-receptive MHC molecules; MHC class I
Test: UV-ligand exchange, anti-β2m ELISA; grade of peptide exchange yield
Excerpt: Candidate peptides for T cell based therapies according to the present invention were further tested for their MHC binding capacity (affinity). The individual peptide-MHC complexes were produced by UV-ligand exchange, where a UV-sensitive peptide is cleaved upon UV-irradiation, and exchanged with the peptide of interest as analyzed. Only peptide candidates that can effectively bind and stabilize the peptide-receptive MHC molecules prevent dissociation of the MHC complexes. To determine the yield of the exchange reaction, an ELISA was performed based on the detection of the light chain (β2m) of stabilized MHC complexes. The assay was performed as generally described in Rodenko et al. (Rodenko et al., 2006).
96 well MAXISorp plates (NUNC) were coated over night with 2 ug/ml streptavidin in PBS at room temperature, washed 4× and blocked for 1h at 37° C. in 2% BSA containing blocking buffer. Refolded HLA-A*02:01/MLA-001 monomers served as standards, covering the range of 15-500 ng/ml. Peptide-MHC monomers of the UV-exchange reaction were diluted 100 fold in blocking buffer. Samples were incubated for 1 h at 37° C., washed four times, incubated with 2 ug/ml HRP conjugated anti-β2m for 1h at 37° C., washed again and detected with TMB solution that is stopped with […]. Absorption was measured at 450 nm. Candidate peptides that show a high exchange yield (preferably higher than 50%, most preferred higher than 75%) are generally preferred for a generation and production of antibodies or fragments thereof, and/or T cell receptors or fragments thereof, as they show sufficient avidity to the MHC molecules and prevent dissociation of the MHC complexes.

Binder | peptide exchange yield [%]
B1 | ≥ 75
B2 | 50 to 75
B3 | 50 to 75
B4 | 50 to 75
B5 | 50 to 75
B6 | ≥ 75
B7 | 20 to 50
B8 | 50 to 75
B9 | 50 to 75
B10 | 50 to 75
B11 | 20 to 50
B12 | 50 to 75
B13 | 20 to 50
B14 | 50 to 75
B15 | 50 to 75
B16 | 50 to 75
B17 | ≥ 75
B18 | 50 to 75
B19 | 50 to 75
B20 | ≥ 75
B21 | 50 to 75
B22 | 50 to 75
B23 | 20 to 50

Binder | peptide exchange yield [%]
B24 | 20 to 50
B25 | 50 to 75
B26 | ≥ 75
B27 | 20 to 50
B28 | 50 to 75
B29 | 50 to 75
B30 | 50 to 75
B31 | 50 to 75
B32 | 50 to 75
B33 | 50 to 75
B34 | 50 to 75
B35 | 50 to 75
B36 | 50 to 75
B37 | 20 to 50
B38 | 50 to 75
B39 | 20 to 50
B40 | 20 to 50
B41 | 50 to 75
B42 | ≥ 75
B43 | 50 to 75
B44 | 20 to 50
B45 | 20 to 50
B46 | 50 to 75

Binder | peptide exchange yield [%]
B47 | 50 to 75
B48 | 10 to 20
B49 | 50 to 75
B50 | 20 to 50
B51 | 50 to 75
B52 | ≥ 75
B53 | 50 to 75
B54 | ≥ 75
B55 | 50 to 75
B56 | ≥ 75
B57 | 20 to 50
B58 | 50 to 75
B59 | ≥ 75
B60 | 20 to 50
B61 | 50 to 75
B62 | 50 to 75
B63 | 20 to 50
B64 | 20 to 50
B65 | 20 to 50
B66 | 50 to 75
B67 | 20 to 50
